Measurements as given in a protein production outcome set (Wang et al. 2014).

Assay: label from the status in PepcDB records

Row | Sequence | protein production
1 | MTTRRLPRPCRFNPTIHVVLAVLALLLSGLAAFADLPALTGRVVDDAGIIDAGTRAALTQKLADFEKKGSDQIVVATIPSLGGEEIEPYANRLFRFWKLGQAGENNGVLLLVAKNDHKMRIEVGYGLEGTLTDLHTKLIIENDMVPAFRAGDFSGGISKAVDDMVMVLEGNPEELEARGKRNPADSSTPIDPIVTVFLILWATMFFGGLAMAFLPPMFGTKLSPGVYRWLGMTFRYGKGPSGSSGGSGWTTGSSGGGWSSGSSSSGWSSGSSSSGGGFSGGGGSSGGGGSSGSW | failed
2 | MTTRTRNLYILMLANLLMSASMTMIMPFLSLYIETFGDYSNAYVQRWAGYIFGVTFLIAFIFSPIWGRIGDKHGYKGILILTSVGLSICIFLMGFAHSVTYLLILRIFMGVVTGFIGVSNAFIARQTPRNEAGKVLGTLQLGGVTGMLFGPLIGGAMADLFGFKDTFTITGIAMMVAALIVAFGVKEIRTEEQKEAAKVVYSRRAVLKQIFTLRVLFTVMVITALIQIANFSVQPLLALYVGDMTQSDNIAFLSGLAFSATGFGNLVMTRKWGQLGDKYGYEKILNILLIMAAVFVIPQAFATNLWVFIFFRFLFGIAIGGMVPCTTAYIRLAAPGVMQGEMLGYNQSARFLGNVIGPILGGTLAGFTGIPSVFLFMSFMFLVAFFILLYALRSDRKRHVNVD | failed
3 | MTTSATSGTGPTANSMRRALKRARDGVALDVTEAAVLLQARGEDLDDLTASAARVRDAGLEAAGRAGVITYSKSVFIPLTRLCRDKCHYCTFVTVPGKLRRAGHGMFMSPDEVLDIARKGAALGCKEALITLGDKPEDRWPEAREWLDAHGYDDTIAYVRAISIRILEETGLLPHLNPGVMSWTDFQRLKPVAPSMGMMLETTATRLWSEPGGPHHGSPDKEPAVRLRVLEDAGRSSVPFTSGILIGIGETYEERAESLFALRKISRAYHGIQELIIQNFRAKPDTAMRGMPDAELDELIATVAVARHIMGPRACLQAPPNLVDSEYGRLIGAGIDDWGGVSPLTIDHVNPERPWPQIDLLREQSAQAGFELRERLCVYPEFVQRGEPWLDPRLLPHVRALADPASGLAHADATVEGHPWQEPEEAFVAQGRTDLHHSIDTEGRTGDRRDDFDVVYGDWEALREAAAPGMVPERIDTDVRQALATAANDPTRLTDAEALALLHADGPALDALTRIADDVRKAAVGDDVTYIVTRNINFTNVCYTGCRFCAFAQRRTDADAYTLSLEQVADRAQQAWDVGAVEVCMQGGIHPDLPGTAYFDIAKAVKERVPGMHVHAFSPMEVVNGATRTGLSIREWLTAAKEAGLDSIPGTAAEILDDEVRWVLTKGKLPTATWIEVITTAHELGIRSSSTMMYGHVDQPRHWLGHFRTLARIQQQTGGFTEFVTLPFIHTNAPVYLAGIARPGPTTRDNRAVMAMARLLLHPHIPNIQTSWVKLGTEGAAEMLRSGANDLGGTLMEETISRMAGSSYGSYKSVKDLIAVAEAAGRPAKPRTTLYGEVPQERQRAAAASDGHLPELLPVLD | failed
4 | MTTTLTILTPTYNRAYILPKLYASLVEQTNKHFDWMVVDDGSTDNTEQLISEFIADGKINIVYIKQKNGGKHRALNTGAQSINSDYIFIVDSDDYLTNDAIDIILENSHYLKEKNLMGMTLLRGYAPDKVIGEKYPEDFMIKNFNQVRYNMGIKGDKAEVVSTKIFRETPFPEIPGERFMSEGVAWKQLAHKGDSLFINKIVYITEYLEDGLTHSGRLLLIKNPLGAMLNAKLAMTKEFSFKIREKNSLLYIAYGFFAKKKVREIITESGQRKLVRVNLLFGWMI | failed
5 | MTTTPTTPATPTTPNAPTPDVTITVIVYNDAERLPRAVASLLRQTHPAIEIIISDDHSTDATPSVARELEASDPRIRYLRLPENSGGCSAPRNRALEIARAPYLMFLDSDDELPENAVALLLAAHREREVDFAMGAVERIRVDTGHRSTWMAHLVDERRTVDGIEAEPGLLFEHLATSKMYTRDFLDRHALRFPEGIHYEDQLFSAQAYCLAKSFTVIPQPVYRWYIAPYVAQDAASISNQRHKLSNVSDRIHVQTLIDDFLAESGHESLRQDKDYKFLKHDFRMYAGDLPYRDEDWLTGFARIVTPYLETLSPGAYALLPRAERVVLQLVRDGRLSEAQLAARGLGHSVAPRETTADDSGCLYWGPRLPSSDWARRELDVTELGLDSRPFPSAQFRHEITSVTPGRGMTVDLTIRTYDPGLRLPVGPQRASVVVAPGRRRLMVPFRLDPVRPGVFEGRVRVDLAAAPLPVQGFDGVRHPLLRLEQQGLANTGVLLAPLTFPTLRATRPGSLRHEVTVEPEGKAAGRLQIRWRPVGVTARVAGPVARKVAGPRVRRAARLVRSALR | failed
6 | MTTVDSPRDANGPPRFAASGFATPRRPDDTDDTGDADETAATVPHRTRALTTPPRRKTIAAPCIDARTRRDRPARRATHARRALADFRAPAPPVARGTTRNRARRYACPSVDAVARTAPSPHAHRAAPARRPPSSEGAIMSEAVRMERDTFGEIAVPAARLWGAQTQRSLQNFKISTEKQSPELIHALALIKRAAAAVNLELGVLAQDKANAIVAAADEIIAGRHADEFPLAVWQTGSGTQTNMNLNEVIANRASELLGGERGESRAVHPNDDVNRGQSSNDVFPTAMHIAAARAIVDHLLPALRTLRATLDAKAAAFADIVKIGRTHLQDATPLTLGQEFSGYVAQLDQGIRHVEAALPHLYELAQGGTAVGTGLNAHPKFAAGVAAEIGRLTGLPFVSAPNKFEVMAAADALVFAHGALKTVAASLMKIANDIRWLASGPRCGLGELSIPENEPGSSIMPGKVNPTQSEAVTMLCCQVFGNDVAVNFGGASGNFELNVFRPMIAHNVLQSVRLLADGAQGFNDHCAVGIEPNRARIDALLNESLMLVTALNPHIGYDKAAQIAKKAHKEGTTLKAAALALGYVTDAQFDEWVRPEHMVGNR | not failed
7 | MTTVSPDDSSPSTLTSLTFDDLTPGQSASLSRTLTQADLDLFATVSGNIDPSHFADPPAGTTLFPKAIGHGMWSASLISGVLGTRLPGPGTVYLAQDLRFRAPVTLGDTITASVTVREKRTERKTVVFECLCTNQNGVTVVSGTAEVIAPATHASVAAQALPGLQMIRHDRQAALLARCAGLPALPTAVIHPCDGPALQGAVEAAQRGLIEPILVGPSLLIAATAKALGLDISAFRLVEAANGAAAAATGVALVRAGEARAVMKGALHTDELMAAVVKRDGGLRTAGRISHVFLMTVPTYPKPLLITDAVVNIAPSLEDKVHIVQNAIDLARILGVETPKVAILSAVETINPKISSTVDAAALCKMAQRGQIRGGLLDGPLAFDNAISAEAAKTKGIVSEVAGQADILLVPDLESGNMLAKQLSFLAHADAAGIVLGTSAPVMLTSRADNLAARLASCALAVLIDAASRPRSTVLAAE | failed
8 | MTTYTSIANVIKERRSVRTFTDKAVEKDLLIELLNDATWAPNHKHREPWNCKLYIGEGRKKLVDAVLNSFTEEERAKRGKILSDRFLSTPAQIVVYMNEDPRQIQRDEDYAATCAFMQNFQLLAWERGLGCVWKSGGLNYNPLFIEGIGLTRGQRIVGILHIGYFDKAPEGKARTPITEKMEIIEG | not failed
